# Assay results: the NTF2 design screens of Basanta et al. (2020)
# Experiment: protease stability score; higher = more stable; yeast display proteolysis, trypsin and chymotrypsin;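 also: relative to predicted unfolded state with 0 unfolded-like and 1 meaning tenfold more protease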
row,Sequence,protease stability score
1,SREHKEAEDALRQWLETLRTGDERTMHELFDPNVRLHINGKEIHGREKVLTQLEHELKRFKNVRYELESIDITEHHVRVFGTSHVNGVEEKLEIVILKWDGRWRVQELYVHRV,1.67
2,DDIKEESRHAHEEMLKIIKTGNEEVFEEMADPDVRIILDINGRDVRSHGREEAVRFWHEFMERVKGLRIHTDDLIVVGDKIELRIHSRYNGVRTHIRMIVSKFDGVWLLTELEIRVV,1.75
3,DDLEQESHKVFEQYVRDWRTGDEHNVERLADPHVRVLYNGRHSHGWKEFLEHFSRDAQQADHTEFRIDDTDHQGDKMVLNETVILRYGDKEIQIEVELIYRKIDGRWYITEVRFR,0.204
4,SEERAKKVAKKLMEAFVKGNKDDAKDALQEDVQLHIAGTTYHGPKAVEKLIEFWQRVGVEVKVQEVRVKGNHVEIQTQVHLGDNTTTVRYKIQVEGDKVKKLQLNFSEEVFKQAKDG,2
5,DERTLEQLLQDFINNMQTGDHQSLKDLLDENARVNIGDKTLSGRERVTTALKRLMRRVDHIQVDHYEVTNGEMNIDMQLEVNGVRVKVEVIIEVHNGKAKFIEFRVRNEEQWERVEG,2.19
6,DEQEDRDMKKMYKNLQEGDDQRVADMADPNARWRVGDKTYHGKDSIRHWAKEVHDRMHFRIQSITVQNENGKVKVEIKWVTDENGKPVDQTVQVKAELHNGHIVDIDITTQS,0.098
7,TELDKHLEDFAREFLHAFLTGDEDELRRLLDPNVKFEHDFDGVRFENHGMSALKEFWERVDVIDRFEIHEVRTQGDFIELVFHIDGWVNGRHKRTDSRILLVVINGKIKTIHVKIK,2.15
8,KEQDHLIKNVLERLFRAFHTGNEEELEKLIDPHAMIIIGDKHFHGREEVLHTLVNLVNEIRFRDMELKDSRLFDGRVNIDLDEHIRQGDKHHLYEVHLILYKFDGRWFIRKFEIR,1.46
9,SEEDEHAEHMLRLWLHAIETGDEKLLLELVDPHAKNDVNGVDLHGRHEVWRHVYEMLHKFKNIRWDITETRYIGDYVHIRGILRQGDKTHDIRIKVVSFNGRIKKVEIRIE,2.48
10,DEDHEEFHRLVHEIFEYWRTGDEESLSELADPHVRYLYGDKIWIGREDMMTFLREIRIDRVHIEDMRVHKIGNKAEIRSDTRMDLHFNGKRLETKTEVKIVLHKVNGRWVIKSIEYRIE,2.13
11,TEDEEDSLFAFDEWVKSVETGDEHTLSKLADPHTRLNVNGVDQHGRENMSHMMLRLANRYDHIEIRLHSWRLINGRIEVDSRVINVVGDKRIESNFHMFILKVNGRWLMHSVHFE,0.847
12,SEEEKTSHHLLKLIKHDRETGNEKRMEEYIDPHVKLLINGREFHGWEDALHWIREAGIKHFELKHIDIIGEKLRIDGVINYNGQTHRITFHAIKVDGVWLNKEINHG,0.121
13,SEDEKAVEDLFKLWVRDLVTGDEDSINKLLDPNARVEIGDKEFHGMEDVVRFLLHIRFKHVEMHDMRVQGNKATLHVDIRGVVDGRDRELDTILIIEKVNGKWYLHHQKIN,1.48
14,SEEEENARRAAEHHEHVLKTGDEDHMTRMFDPNVRVRQGDKEIHGREEFRRLFHELVRRYPNLKFELEDVDVFNGKVVVHMIFWVDGRTIEIHWFIDKFDGQWVVEEVEFR,1.19
15,DETKEDTNRWIEHELRALKTGNWKEQFKNLDPNVRMHLHVGDKNKDLHGREKVTTELRRLFEEFGIKHIHLTNFEVQGDKIHLIMHIEVDGRHIELHLIVTKIDGKWHMESIEMHFR,0.866
16,DEEKHEFELLLRLWLRTMETGDEQMSRRLVDPNVRIEIGDKDIHGREEMSRIVRHWRVHDYDIKDSTVQGDKAHLDGHIEGTIDGKTTRFHIHLNLEKINGRWLIKEVVVE,2.19
17,DDHRDRLEHHASEFITAMLTGNWERLYQLVDPHVRLEIHVNGRKQHRVGREEFWTQWQKFVEDFGIDHSHLDRMEVIGNKMHAEFNIRVGDKRFILELHVIIVNGRISEVRVDFR,2.15
18,SETEELASKVTKEFKRVLETGDWRVSLNLLDPDTLLEINGVEFHGREAWEEFNERFKNVKIHFIERDMKIVGNKIKIEGHLEDRWNGQSTHREMHLVFDKVNGRWFNRSVHFG,0.57

row,Sequence,protease stability score
1,DHNKELWERIAEWLIRLQETGNEEELMKNMDPHTRLLVNGVTAHGRDTVTHYYREFLKELGVDVLELKRVHVQGEKVENDGQLHYNGKTHHSRINFFVINGRIHHIELHFE,0.745
2,HELQEEATRFIKEFQEAVRTGDWRLWKKQLDPHVRLDIDGRHYHGRDIVLEFLRELEDKMGIERENVHIEHIDFQGDKVIVHSKEHGIVNGQRFDDKSSSIVLKINGQWTLHSVKIR,1.19
3,DDIEKDIREVLDILIRAFQTGDEDKILELFDPHARVDVGEYHNHGWERVEEWMHRVDHIDVRRLEIKHFHHINGRIVLHTHFDGILTINGREIHTETEVHIILVKINGKWYFKEISHH,2.12
4,DEDREMVEEVIRERLEDLKTGDWKKLADLADPHVRLDVGDKEYHGREEFTKTFTDILRILGHSNIQTDLKHIDFFDGRLDVHQTVHIGDKTIHHQILFHKFDGKWKITEMRITIR,0.928
5,REEEHAMKSMIDLWIESMNTGDERSISEMADPNAKNRVGDKTFVGMELLSHILFKLVKELGVRIEDHKIHDIKVQGDKIVSHVRLHLKYGDKEEDHETIIYTRKINGRWLIERVEVI,1.53
6,RDTEETVENASKRWVRTMETGDEDVLHRLLDPHVRVEAENHEIHGREIVSTHIREILEKLGMTIHIHLKDVRVQGNKAEIDMHIEYIIDGRITSHDYTLINRKINGRWLVERVIIN,0.31
7,SENHKLSREALEHFLHLVHTGDFEKIYHMLDPNVKSEAENHHDHGMRDVVHLWRTMGIDHIRVHEVRIFENHLDVDMISIVGDKHFRLNIHIRKVNGRWQTELVRVN,1.8
8,SEDEHNAEIAIKIWLDTIRTGDWHKIENMADPNTRIDIGDKHFHGREEIVRLYIELVEKFPGMTFHVREVDVVGDKVDIHSHVVVGDKTFNLTIIITKVNGRWLLKKVRMESH,2.67
9,DEATKSAEIAVRLLKKTQDTGNEELERKLVDPHVRVDVNGRESHGWEHLVEIIREMRVHSLTVTRSEVQGNKVFNDGILDGEINGVRVHIYIHIIIEKINGQWVIRELRFH,0.803
10,TEDQEEAKRLLHHLAHNWFTGNEHILTRLADPNTRMNVNGRDYHGREIMHETVREILERLGIDHFEIKDMRFIVQGEKIHIHIHIRSTVNGQEEDFRLSISVHKIDGRWVIKEINLHFI,0.511
11,SEHEHMIQVALELWLHTLHTGDEHKEERLHDPHARLRIGDKELHGREDVIRWMRKVKNVTINRVEVRRINFQGDKAILLVRIDGEFDGRRIDTEVIIIVVKVDGRWLFESMEID,1.31
12,TEDERDMHEAMERHLQDLRTGNWEDVHRQVDPNVRLVFNGKEVHGREEYVEHTVRLAERADHIELRIRHIDTQGDKLRVEGELIIRQGDKTFIHEVELLFLKVNGRWIIHSFEIK,1.55
13,DEEERLLHEAFEELVRVWETGDEEEKLRYMDPNTIIVINGVELHGREEARKHAHHLRIHRFHLKDYRFQGDKVHLDMHIDGFINGQKMRTDVRFQVHKIDGRWVITHSIWI,1.71
14,SEDEELRQIAVEFILHILWTGDEELLYKYFDPHVRSDINGRRTHGRENMLRAIREMMRKIKGIQLTSLHITDIEIIGDYLNIDGHFRLNYDGKETDLSLKIDIFKINGKWSIHAISYR,2.08
15,GEDEHLAKRLLDLLIELFHTGDWDFISMLADPHVKLNVNGVQYHGRHDVTKLVHDEAEELRVHIQIHKVDWVGDKVHVDTRLVVNIDGQEHRTKTHIDMIVVNGRLNSMRIEIR,1.19
16,DETEEMAEEVLRRFLEINRTGDWKDLHRLFDPNVRIVVNGQELHGMELYLKHEIKTRRKLGAKVEEVRLKHLDSQGEKIISEVEIIFDINGQEIRLDVRVIMNKIDGKWTIRELRIH,1.08
17,TEEDEVTEELARNWVKYFLTGDEEQLHRLMDPNARFHTIVGDKHVHRHGRESIVHWIDHVLRHIRIEEVHIRRVHIWNGRVDINNEEIGRVGDKHYRTEVRIHLRIVDGVIRSVDIDIE,0.693
18,DDWERLYLHLARLWFELILTGDEETIDKMVDPHTRLEIGDFESHGREELRYLFHHMRSHEIRIRSFDTYGDKAIIDGEIDTIINGRRMIVKIRLHVIIINGRVHSIKVEHE,1.08
